Test results: article PMC7954794, “Protein context shapes the specificity of SH3 domain-mediated interactions in vivo” (Nature Communications, 2021)

These molecules were tested on 575 putative partners (preys) of 22 WT SH3-containing proteins (assay: DHFR-PCA on solid medium, WT and SH3-deleted baits (Fig. 1B)). Settings: number of PPIs; SH3 domain in its own protein; DHFR-PCA; Fig2D,S2F.
Assay type: cell-based, Saccharomyces cerevisiae
Method in brief: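 Interactions scored by DHFR protein-fragment complementation on solid medium using robotic pinning; preys (DHFR F[3] fusions) arrayed in duplicate with control borders. Baits carried C-terminal DHFR F[1,2]-FLAG tags, tested as wild type and as SH3-deleted versions carrying a flexible Gly/Ser stuffer.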

Molecule	SH3-dependent PPIs
MYO3 (protein, UniProt P36006 1-1272, looked up) Myosin-3: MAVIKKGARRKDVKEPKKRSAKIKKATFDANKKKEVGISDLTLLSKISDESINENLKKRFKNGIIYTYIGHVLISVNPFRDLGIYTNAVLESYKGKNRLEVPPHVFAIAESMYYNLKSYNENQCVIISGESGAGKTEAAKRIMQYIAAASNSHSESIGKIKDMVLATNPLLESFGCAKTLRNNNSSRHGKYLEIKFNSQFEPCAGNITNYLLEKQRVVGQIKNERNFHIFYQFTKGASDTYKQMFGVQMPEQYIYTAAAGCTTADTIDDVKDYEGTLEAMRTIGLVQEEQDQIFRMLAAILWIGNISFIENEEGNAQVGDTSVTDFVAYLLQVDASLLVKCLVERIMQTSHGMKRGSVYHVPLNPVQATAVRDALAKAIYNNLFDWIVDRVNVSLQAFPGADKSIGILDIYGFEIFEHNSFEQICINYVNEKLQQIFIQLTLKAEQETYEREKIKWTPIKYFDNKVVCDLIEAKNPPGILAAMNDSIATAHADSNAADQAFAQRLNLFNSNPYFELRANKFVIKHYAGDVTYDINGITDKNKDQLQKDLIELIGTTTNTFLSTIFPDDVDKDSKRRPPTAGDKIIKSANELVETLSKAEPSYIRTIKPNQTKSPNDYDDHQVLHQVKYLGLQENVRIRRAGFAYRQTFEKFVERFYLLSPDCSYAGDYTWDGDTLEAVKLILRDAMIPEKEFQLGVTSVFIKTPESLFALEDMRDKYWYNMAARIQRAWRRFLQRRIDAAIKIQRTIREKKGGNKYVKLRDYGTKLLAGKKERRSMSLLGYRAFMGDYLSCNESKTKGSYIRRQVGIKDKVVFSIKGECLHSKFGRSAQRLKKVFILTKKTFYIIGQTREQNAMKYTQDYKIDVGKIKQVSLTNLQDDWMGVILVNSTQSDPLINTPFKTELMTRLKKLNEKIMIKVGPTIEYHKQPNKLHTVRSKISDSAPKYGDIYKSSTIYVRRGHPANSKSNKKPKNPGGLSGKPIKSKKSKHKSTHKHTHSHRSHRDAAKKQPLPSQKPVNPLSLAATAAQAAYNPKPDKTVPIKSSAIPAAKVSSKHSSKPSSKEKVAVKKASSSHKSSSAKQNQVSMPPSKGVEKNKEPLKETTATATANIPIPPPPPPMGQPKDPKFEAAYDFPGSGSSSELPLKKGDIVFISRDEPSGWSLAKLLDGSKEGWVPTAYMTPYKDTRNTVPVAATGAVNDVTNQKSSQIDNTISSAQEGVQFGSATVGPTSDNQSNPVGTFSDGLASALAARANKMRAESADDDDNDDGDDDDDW	17
CYK3 (protein, UniProt Q07533 1-885, looked up) Cytokinesis protein 3: MATNLTSLKPPFKVKARYGWSGQTKGDLGFLEGDIMEVTRIAGSWFYGKLLRNKKCSGYFPHNFVILLEERLNSSTENGRQPSKIVESFEKSNKVVIPPVPSRYSDERPRPKKKLSSSMPNSPKKPVDSLTKARKAKSKEMVNEKNIYNTQSSRHHNNSAPNLPLASHSKPQVRNFEESMNNPLPPLPPLPDLDNMRKTDKRAPKKSYSANDLHMARSSREYNYYKDNQKFYDGFIPEKRYSLEEDSISSGLFSNSQYLNDSACSSENSFALMSDFSATSAGSFARHKYAQSFSDSLQRSQNANGCSTKINDSQEFGDSNASSRNGKMGDILRKIIIPKRNTNIYSSSVSSPKSPKAYPKLPDIQNLNLSATPDEARDWIAVKCHLNRARTLTKYDKHPRYMRALEENRDLILHPQDSIYNGLNTNEVKGNTKPGLVDVELAELNIEYIDKMTWKRCIRDGTMTLDSWAQTTFSARYSTVLEKLRGIYIFCTEMFALTDDNGTSDFSAEPQNLEKILYRKHCTPYELTWLFKKLANSLGITCEIVIGFLKTPSAINWEFKYNHCWLRILVNKEWRFIDVILGNVTNPIHEFVNNRKIKKAENSYFLMAPLEMIYTHIPPREFEQHIVPSIDQLSALYLPLVFPSFFKNELKLYKFSTALSFLEDSEIYECSLEIPNDVEVFASVVIPTDNEEASSAYRNMELALTQIKKQKAESGRRIALIKAVLPPNVNKGSLYIHSGVRGTQTSIANIHPLSMMVPLTHKGSNMKYEFVIKIPSESIQKIELYIVEPQSRYLFVGNEYSFEVIQSPSDGIVYSSDEGPNQNRKQPMAIKSPSGRVHELVKSDPHFPYGTWKGSIKIKEPGVWSALVIADSGIGWSVFAEWLCV	0
LSB3 (protein, left off: DHFR F[3], C-terminal, kept) MGINNPIPRSLKSETKKAAKILASFVKPNQVFGADQVIPPDVLKRAKGLAIITILKAGFLFSGRAGSGVIVARLKDGTWSAPSAIAMAGAGAGGMVGIELTDFVFILNTQDAVKSFSEFGTITLGGNVSVSAGPLGRSAEAAASASAGGVAAVFAYSKSKGLFAGVSVEGSAIIERREANRKFYGDNCTAKMILSGRIRPPPAVDPLFRVLESRAFNYRPSNGGRGSFDDDEDDYYDDDDYYNDIPSSFSSTDASSTRPNTRSTRRRAQSGSRYTFDDDDDDDDYGTGYSRNSRLAPTNSGGSGGKLDDPSGASSYYASHRRSGTAQSRARSSRNRWADDEYDDYDDDYESGYRRGNGRDRTKDREVDDLSNRFSKSRISSASTPQTSQGRFTAPTSPSTSSPKAVALYSFAGEESGDLPFRKGDVITILKKSDSQNDWWTGRVNGREGIFPANYVELV	19
MYO5 (protein, UniProt Q04439 1-1219, looked up) Myosin-5: MAILKRGARKKVHQEPAKRSANIKKATFDSSKKKEVGVSDLTLLSKISDEAINENLKKRFLNATIYTYIGHVLISVNPFRDLGIYTDAVMNEYKGKNRLEVPPHVFAIAESMYYNMKSYNENQCVIISGESGAGKTEAAKRIMQYIAAASSTHTESIGKIKDMVLATNPLLESFGCAKTLRNNNSSRHGKYLEIKFNNQFEPCAGNITNYLLEKQRVVSQIKNERNFHIFYQFTKGASDAYRQTFGVQKPEQYVYTAAAGCISAETIDDLQDYQETLKAMRVIGLGQEEQDQIFRMLAAILWIGNVSFIENEEGNAQVRDTSVTDFVAYLLQIDSQLLIKSLVERIMETNHGMKRGSVYHVPLNIVQADAVRDALAKAIYNNLFDWIVSRVNKSLQAFPGAEKSIGILDIYGFEIFEHNSFEQICINYVNEKLQQIFIQLTLKSEQETYEREKIQWTPIKYFDNKVVCDLIEARRPPGIFAAMNDSVATAHADSNAADQAFAQRLNLFTTNPHFDLRSNKFVIKHYAGDVTYDIDGITDKNKDQLQKDLVELIGTTTNTFLATIFPDTVDRESKRRPPTAGDKIIKSANDLVETLSKAQPSYIRTIKPNETKSPNDYDDRQVLHQIKYLGLQENVRIRRAGFAYRQVFEKFVERFYLLSPHCSYAGDYTWQGDTLDAVKYILQDSSIPQQEYQLGVTSVFIKTPETLFALEHMRDRYWHNMAARIQRAWRRFLQRRIDAATKIQRTIRERKEGNKYEKLRDYGTKVLGGRKERRSMSLLGYRAFMGDYLSCNESKSKGAYIKRQVSIKEKVIFSIHGEALHTKFGRSAQRLKKTFLLTPTTLYIVGQTLVQNAMTYTQDYKIDVRNIQAVSLTNLQDDWVAIKLASSGQPDPLINTYFKTELITHLKRLNDKIQIKIGSAIEYQKKPGKLHSVKCQINESAPKYGDIYKSSTISVRRGNPPNSQVHKKPRKKSSISSGYHASSSQATRRPVSIAAAQHVPTAPASRHSKKPAPPPPGMQNKAATRRSVPNPASTLTASQSNARPSPPTAATRATPAATPAAAAMGSGRQANIPPPPPPPPPSSKPKEPMFEAAYDFPGSGSPSELPLKKGDVIYITREEPSGWSLGKLLDGSKEGWVPTAYMKPHSGNNNIPTPPQNRDVPKPVLNSVQHDNTSANVIPAAAQASLGDGLANALAARANKMRLESDDEEANEDEEEDDW	19
LSB1 (protein, UniProt P53281 2-241, looked up) LAS seventeen-binding protein …: SASLVNRSLKNIRNELEFLKESNVISGDIFELINSKLPEKWDGNQRSPQNADTEEYVEALYDFEAQQDGDLSLKTGDKIQVLEKISPDWYRGKSNNKIGIFPANYVKPAFTRSASPKSAEAASSSTVSRPSVPPPSYEPAASQYPSQQVSAPYAPPAGYMQAPPPQQQQAPLPYPPPFTNYYQQPQQQYAPPSQQAPVEAQPQQSSGASSAFKSFGSKLGNAAIFGAGSAIGSDIVNSIF	8
HSE1 (protein, UniProt P38753 2-452, looked up) Class E vacuolar …: SSSAIKIRNALLKATDPKLRSDNWQYILDVCDLVKEDPEDNGQEVMSLIEKRLEQQDANVILRTLSLTVSLAENCGSRLRQEISSKNFTSLLYALIESHSVHITLKKAVTDVVKQLSDSFKDDPSLRAMGDLYDKIKRKAPYLVQPNVPEKHNMSTQADNSDDEELQKALKMSLFEYEKQKKLQEQEKESAEVLPQQQQQHQQQNQAPAHKIPAQTVVRRVRALYDLTTNEPDELSFRKGDVITVLEQVYRDWWKGALRGNMGIFPLNYVTPIVEPSKEEIEKEKNKEAIVFSQKTTIDQLHNSLNAASKTGNSNEVLQDPHIGDMYGSVTPLRPQVTRMLGKYAKEKEDMLSLRQVLANAERSYNQLMDRAANAHISPPVPGPALYAGMTHANNTPVMPPQRQSYQSNEYSPYPSNLPIQHPTNSANNTPQYGYDLGYSVVSQPPPGYEQ	1
HOF1 (protein, UniProt Q05080 1-669, looked up) Cytokinesis protein 2: MSYSYEACFWDPNDNGVNILLGHISQGIRSCDSMILFFKQRSELEKDYARRLGAITGKLDKDIGTNMDYGKLNETFNVVLSVEKARAQSHSKQSEILFRQIYTDTKAFAANLQARYTTLSGKIERLRMDKFNKKKGCEVLQKKLQDAQIRFRDLQLNENNMIGAKRVEHNKRELLKWESNSQEYKVQLDVLKQEYKASQKFWIHEWAQLSCELQEMENARISFLQSKLQQFATSSMETYILEQTKMDMLTNHLNSFTAADEISTFSKENGTGRLKHKTSKGDMNSSANWAQMSSISTTSKKTESYMDNIRKLSSQLKETENKRKLASIDKYEKPLPSPEVTMATQFRNSTPVIRNETKVVANPTLSLRSSPVQLQSNVDDSVLRQKPDKPRPIVGEEQLKPDEDSKNPDEKGLMVHKRNQSLSSPSESSSSNPTDFSHIKKRQSMESMTTSVSSMANSIDDSQRFAKSWNSSNRKRKSMSHLQVPSSASSRSDDGGRTPNSAHNLNEDDYNTRRDTSTSTILFKPPVAVRGTSRGHTHRQSMIMQDSSNPIEDALYEMERIQSSSKPGTKTGNIMDERGVVRDRGITVTLPIVTSEGFPVIEYAKAMYPLIGNEAPGLANFHKGDYLLITEIVNKDWYKGEVYDNDRIDRNHRIGLIPYNFIQLLHQGL	4
FUS1 (protein, UniProt P11710 1-512, looked up) Nuclear fusion protein FUS1: MVATIMQTTTTVLTTVAAMSTTLASNYISSQASSSTSVTTVTTIATSIRSTPSNLLFSNVAAQPKSSSASTIGLSIGLPIGIFCFGLLILLCYFYLKRNSVSISNPPMSATIPREEEYCRRTNWFSRLFWQSKCEDQNSYSNRDIEKYNDTQWTSGDNMSSKIQYKISKPIIPQHILTPKKTVKNPYAWSGKNISLDPKVNEMEEEKVVDAFLYTKPPNIVHIESSMPSYNDLPSQKTVSSKKTALKTSEKWSYESPLSRWFLRGSTYFKDYGLSKTSLKTPTGAPQLKQMKMLSRISKGYFNESDIMPDERSPILEYNNTPLDANDSVNNLGNTTPDSQITSYRNNNIDLITARPHSVIYGTTAQQTLETNFNDHHDCNKSTEKHELIIPTPSKPLKKRKKRRQSKMYQHLQHLSRSKPLPLTPNSKYNGEASVQLGKTYTVIQDYEPRLTDEIRISLGEKVKILATHTDGWCLVEKCNTQKGSIHVSVDDKRYLNEDRGIVPGDCLQEYD	0
